Results: patent publication US20250147035A1, “METHODS FOR DETECTION OF POST-TRANSLATIONAL MODIFICATIONS” (Quantum-Si Incorporated, priority 2023, published 2025)
Like-named read-outs stand apart in the source and are kept apart here. Primed or numbered codes have the meaning given here. Where no end group is shown, it is not given here. [ ]: non-standard residue; d: D form. pT = C[C@@H](OP(=O)(O)O)[C@H](N)C(=O)O; pS = N[C@@H](COP(=O)(O)O)C(=O)O; Biotin′ = not defined here

T1: …-Biotin
T1 sequence (peptide, C-terminal Biotin): SAKLDEESILKQ

T2: p…-Biotin
T2 sequence (peptide, phosphothreonine at 1; C-terminal Biotin): TAKLDEESILKQ

T3: pSAKLDEESILKQ-Biotin
T3 peptide: [pS]AKLDEESILKQ-{Biotin′}

T4: TAKLDEESILKQ-Biotin
T4 peptide: TAKLDEESILKQ-{Biotin′}

T5: pTAKLDEESILKQ-Biotin
T5 peptide: [pT]AKLDEESILKQ-{Biotin′}


How the values were obtained:
…-Biotin = target: T1, …-Biotin; experiment: Octet (BLI), fixed reagent concentration
p…-Biotin = target: T2, p…-Biotin; experiment: Octet (BLI), fixed reagent concentration
p[…]-Biotin [1] = experiment: Octet binding assay of PTM-specific affinity reagent candidates, pTQR peptide; details: fixed concentration of reagent
Protocol: This Example characterizes an exemplary phosphorylated threonine recognizer for use in methods of the disclosure. Octet binding assays at a fixed concentration of PTM-specific affinity reagent candidates were evaluated for binding with phospho-threonine, phospho-serine containing peptides (p[…]-Biotin; p[…]-Biotin; p[…]-Biotin), and control peptides without modifications ([…]-Biotin; […]-Biotin).

p[…]-Biotin [2] = experiment: Octet binding assay of PTM-specific affinity reagent candidates, pTA peptide; details: fixed concentration of reagent
Text: (§1) This Example characterizes an exemplary phosphorylated threonine recognizer for use in methods of the disclosure.

SAKLDEESILKQ-Biotin = experiment: Octet binding assay of PTM-specific affinity reagent candidates, SA control peptide; design: unit not given here; details: fixed concentration of reagent
Text: as §1

pSAKLDEESILKQ-Biotin = target: T3, pSAKLDEESILKQ-Biotin; experiment: Octet (BLI), fixed reagent concentration;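 further: octet binding of candidate PTM-specific affinity reagents, each at one fixed concentration, to biotinylated phospho-Thr or phospho-Ser peptides, with unmodified biotinylated peptides serving as controls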
Protocol: (§2) Octet binding assays at a fixed concentration of PTM-specific affinity reagent candidates were evaluated for binding with phospho-threonine, phospho-serine containing peptides (p[sequence]-Biotin; p[sequence]-Biotin; p[sequence]-Biotin), and control peptides without modifications ([sequence]-Biotin; [sequence]-Biotin).

TAKLDEESILKQ-Biotin = target: T4, TAKLDEESILKQ-Biotin; experiment: Octet (BLI), fixed reagent concentration;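 further: octet binding of candidate PTM-specific affinity reagents, each at one fixed concentration, to biotinylated phospho-Thr or phospho-Ser peptides, with unmodified biotinylated peptides serving as controls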
Protocol: as §2

pTAKLDEESILKQ-Biotin = target: T5, pTAKLDEESILKQ-Biotin; experiment: Octet (BLI), fixed reagent concentration;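 further: octet binding of candidate PTM-specific affinity reagents, each at one fixed concentration, to biotinylated phospho-Thr or phospho-Ser peptides, with unmodified biotinylated peptides serving as controls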
Protocol: as §2

| Molecule | Octet binding assay response (…-Biotin) | Octet binding assay response, pTQR (p[…]-Biotin [1]) | Octet binding assay response (pSAKLDEESILKQ-Biotin) | also measured |
| --- | --- | --- | --- | --- |
| PM09 (Human/BRCA1 Tandem domain) (from UniProt P38398 1646-1859) | 0.1 |  |  |  |
| PM08 (Human/DLG4) (from UniProt P78352 426-724) | 0.3 |  |  | Octet binding assay response (p…-Biotin): 1.2 |
| PM02: Human/14-3-3 protein theta, SEQ ID NO: 2 |  | 0.5 |  |  |
| PM16: Human/PLK1, SEQ ID NO: 16 |  | 2.1 |  | Octet binding assay response, pTA (p[…]-Biotin [2]): 1.7 |
| PM15: Human/Pin1, SEQ ID NO: 15 |  | 7.4 |  | Octet binding assay response, SA (SAKLDEESILKQ-Biotin; SA = […]-Biotin (control)): 0.5 |
| PM15 (Human/Pin1) (from UniProt Q13526 1-163) | 0.5 |  |  |  |
| PM16 (Human/PLK1) (from UniProt P53350 326-603) | 0.5 |  |  | Octet binding assay response (p…-Biotin; pTA phosphothreonine peptide): 1.7; Octet binding assay response (p…-Biotin; pTQR phosphothreonine peptide): 2.1 |
| PM08: Human/DLG4, SEQ ID NO: 8 |  | 1.2 |  |  |
| PM03: Human/14-3-3 protein eta, SEQ ID NO: 3 |  | 0.4 |  | Octet binding assay response, SA (SAKLDEESILKQ-Biotin; SA = […]-Biotin (control)): 0.3 |
| PM04 (Human/14-3-3 protein gamma) (other) MVDREQLVQKARLAEQAERYDDMAAAMKNVTELNEPLSNEERNLLSVAYKNVVGARRSSWRVISSIEQKTSADGNEKKIEMVRAYREKIEKELEAVCQDVLSLLDNYLIKNCSETQYESKVFYLKMKGDYYRYLAEVATGEKRATVVESSEKAYSEAHEISKEHMQPTHPIRLGLALNYSVFYYEIQNAPEQACHLAKTAFDDAIAELDTLNEDSYKDSTLIMQLLRDNLTLWTSDQQDDDGGEGNN | 0.1 |  | 0.1 |  |
| PM21 (Human/PHF3) (other) MTFLARLNFIWKGFINMPSVAKFVTKAYPVSGSPEYLTEDLPDSIQVGGRISPQTVWDYVEKIKASGTKEICVVRFTPVTEEDQISYTLLFAYFSSRKRYGVAANNMKQVKDMYLIPLGATDKIPHPLVPFDGPGLELHRPNLLLGLIIRQKL | 0.1 | 0.5 | 0.2 | Octet binding assay response (p…-Biotin): 0.5; Octet binding assay response, SA (SAKLDEESILKQ-Biotin; SA = […]-Biotin (control)): 0.1; Octet binding assay response (TAKLDEESILKQ-Biotin): 0.2; Octet binding assay response (pTAKLDEESILKQ-Biotin): 0.3 |
| PM01 (Human/14-3-3 protein epsilon) (other) MDDREDLVYQAKLAEQAERYDEMVESMKKVAGMDVELTVEERNLLSVAYKNVIGARRASWRIISSIEQKEENKGGEDKLKMIREYRQMVETELKLICCDILDVLDKHLIPAANTGESKVFYYKMKGDYHRYLAEFATGNDRKEAAENSLVAYKAASDIAMTELPPTHPIRLGLALNFSVFYYEILNSPDRACRLAKAAFDDAIAELDTLSEESYKDSTLIMQLLRDNLTLWTSDMQGDGEEQNKEALQDVEDENQ | 0.2 |  | 0.2 |  |
| PM22 (Schizosaccharomyces pombe/FCP1) (other) MKQKVLKGCRLLFSGVIPLGVDVLSSDIAKWAMSFGAEVVLDFSVPPTHLIAAKIRTEKVKKAVSMGNIKVVKLNWLTESLSQWKRLPESDYLL | 0.2 |  | 0.1 |  |
| PM22: Schizosaccharomyces pombe/FCP1, SEQ ID NO: 22 (protein) MKQKVLKGCRLLFSGVIPLGVDVLSSDIAKWAMSFGAEVVLDFSVPPTHLIAAKIRTEKVKKAVSMGNIKVVKLNWLTESLSQWKRLPESDYLL |  |  |  | Octet binding assay response, SA (SAKLDEESILKQ-Biotin; SA = SAKLDEESILKQ-Biotin (control)): 0.2 |
| PM14 (Saccharomyces cerevisiae/RAD53) (other) MEDQDGKIQGFKIPAHAPIRYTQPKSIEAETREQKLLHSNNTENVKSSKKKGNGRFLTLKPLPDSIIQESLEIQQGVNPFFIGRSEDCNCKIEDNRLSRVHCFIFKKRHAVGKSMYESPAQGLDDIWYCHTGTNVSYLNNNRMIQGTKFLLQDGDEIKIIWDKNNKFVIGFKVEINDTTGLFNEGLGMLQEQRVVLKQTAEEKDLVKKLTQMMAAQRANQPSASSSSMSAKKPPVSDTNNNGNNSVLNDLVESPINANTGNILKRIHSVSLSQSQIDPSKKVKRAKLDQTSKGPENLQFS | 0.2 | 1.0 | 0.2 | Octet binding assay response, pTA (p[…]-Biotin [2]): 1.1; Octet binding assay response (p…-Biotin; pTA phosphothreonine peptide): 1.1; Octet binding assay response (p…-Biotin; pTQR phosphothreonine peptide): 1; Octet binding assay response (TAKLDEESILKQ-Biotin): 0.1 |
| PM10 (Human/MCPH1) (other) MSGRGKKPTRTLVMTSMPSEKQNVVIQVVDKLKGFSIAPDVCETTTHVLSGKPLRTLNVLLGIARGCWVLSYDWVLWSLELGHWISEEPFELSHHFPAAPLCRSECHLSAGPYRGTLFADQPAMFVSPASSPPVAKLCELVHLCGGRVSQVPRQASIVIGPYSGKKKATVKYLSEKWVLDSITQHKVCAPENYLLSQ | 0.2 | 1.0 | 0.3 | Octet binding assay response (p…-Biotin): 1; Octet binding assay response, SA (SAKLDEESILKQ-Biotin; SA = […]-Biotin (control)): 0.2; Octet binding assay response (TAKLDEESILKQ-Biotin): 0.3; Octet binding assay response (pTAKLDEESILKQ-Biotin): 0.3 |
| PM23 (Human/Scp1) (other) MAFEELRVQAENARLDMHFKLKEDHEKIQHLQEEYKKEVNDKENQVSLLLIQRTEKENKMKDLTFLLEESRDKVNQLEDKTKLQDENVKELNKKKDHLTSELEDTKMSLQRSMNTQKALEEDLQIATKTIYQLTEEKEAQMEEFNKAKTDHSFMVTELKATTCTLEELLRTEQQRLVKNED | 0.1 | 0.3 | 0.1 | Octet binding assay response (p…-Biotin): 0.3; Octet binding assay response (TAKLDEESILKQ-Biotin): 0.2; Octet binding assay response (pTAKLDEESILKQ-Biotin): 0.2 |
| PM20 (Human/RB15B) (other) MQLGWNGLLVLKNSCFPTSMHILEGDQGVISSLLKDHTSGSKLTQLKIAQRLRLDQPKLDEVTRRIKQGSPNGYAVLLATQATPSGLGTEGMPTVEPGLQRRLLRNLVSYLKQKQAAGVISLPVGGSKGRDGTGMLYAFPPCDFSQQYLQSALRTLGKLEEEHMVIVIVRDTA | 0.2 | 0.5 | 0.2 | Octet binding assay response (p…-Biotin): 0.5; Octet binding assay response (TAKLDEESILKQ-Biotin): 0.2; Octet binding assay response (pTAKLDEESILKQ-Biotin): 0.3 |
| PM19 (Human/RBM15) (other) MAPVASASPKLCLAWQGMLLLKNSNFPSNMHLLQGDLQVASSLLVEGSTGGKVAQLKITQRLRLDQPKLDEVTRRIKVAGPNGYAILLAVPGSSDSRSSSSSAASDTATSTQRPLRNLVSYLKQKQAAGVISLPVGGNKDKENTGVLHAFPPCEFSQQFLDSPAKALAKSEEDYLVMIIVRGFGFQI | 0.1 | 1.0 | 0.1 | Octet binding assay response (p…-Biotin): 1; Octet binding assay response (TAKLDEESILKQ-Biotin): 0.2; Octet binding assay response (pTAKLDEESILKQ-Biotin): 0.3 |
| PM17 (Human/DIDO1) (other) MTLFLSRLSTIWKGFINMQSVAKFVTKAYPVSGCFDYLSEDLPDTIHIGGRIAPKTVWDYVGKLKSSVSKELCLIRFHPATEEEEVAYISLYSYFSSRGRFGVVANNNRHVKDLYLIPLSAQDPVPSKLLPFEGPGLESPRPNIILGLVICQKIKRPANS | 0.2 |  | 0.2 |  |
| PM11 (Human/TOPBP1) (other) MVYNMVMSDVTISCTSLEKEKREEVHKYVQMMGGRVYRDLNVSVTHLIAGEVGSKKYLVAANLKKPILLPSWIKTLWEKSQEKKITRYTD | 0.2 |  | 0.2 |  |
